Experimental data: the Human Domainome abundance scans (Beltran et al. 2025)
± gives the uncertainty stated by the source.

B1: Nucleolar transcription factor 1, residues 408 to 469; numbered along this chain, P17480 (parent)
chain: KRPVSAMFIFSEEKRRQLQEERPELSESELTRLLARMWNDLSEKKKAKYKAREAALKAQSER

Variants of: B1
Assay: abundance fitness (aPCA) (normalised: wild type 0, dead -1); higher = more abundant; growth selection in yeast, the domain comes from the species named
Conditions: Homo sapiens

Variant | abundance fitness
KRPVSAMFIFSEEKRRQLQEERPELSESELTRLLARMWNDLSEKKKAKYKAREAALKDQSER [A58D] | 0.006 ± 0.1
KRPVSAMFIFSEEKRRQLQEERPELSESELTRLLARMWNDLSEKKKAKYKAREAALKEQSER [A58E] | -0.069 ± 0.068
KRPVSAMFIFSEEKRRQLQEERPELSESELTRLLARMWNDLSEKKKAKYKAREAALKFQSER [A58F] | -0.03 ± 0.065
KRPVSAMFIFSEEKRRQLQEERPELSESELTRLLARMWNDLSEKKKAKYKAREAALKGQSER [A58G] | 0.001 ± 0.056
KRPVSAMFIFSEEKRRQLQEERPELSESELTRLLARMWNDLSEKKKAKYKAREAALKHQSER [A58H] | 0.029 ± 0.098
KRPVSAMFIFSEEKRRQLQEERPELSESELTRLLARMWNDLSEKKKAKYKAREAALKIQSER [A58I] | 0.022 ± 0.12
KRPVSAMFIFSEEKRRQLQEERPELSESELTRLLARMWNDLSEKKKAKYKAREAALKKQSER [A58K] | -0.042 ± 0.05
KRPVSAMFIFSEEKRRQLQEERPELSESELTRLLARMWNDLSEKKKAKYKAREAALKLQSER [A58L] | -0.025 ± 0.039
KRPVSAMFIFSEEKRRQLQEERPELSESELTRLLARMWNDLSEKKKAKYKAREAALKNQSER [A58N] | 0.013 ± 0.059
KRPVSAMFIFSEEKRRQLQEERPELSESELTRLLARMWNDLSEKKKAKYKAREAALKPQSER [A58P] | -0.084 ± 0.061
KRPVSAMFIFSEEKRRQLQEERPELSESELTRLLARMWNDLSEKKKAKYKAREAALKQQSER [A58Q] | -0.002 ± 0.065
KRPVSAMFIFSEEKRRQLQEERPELSESELTRLLARMWNDLSEKKKAKYKAREAALKRQSER [A58R] | -0.041 ± 0.045
KRPVSAMFIFSEEKRRQLQEERPELSESELTRLLARMWNDLSEKKKAKYKAREAALKSQSER [A58S] | -0.051 ± 0.048
KRPVSAMFIFSEEKRRQLQEERPELSESELTRLLARMWNDLSEKKKAKYKAREAALKVQSER [A58V] | -0.017 ± 0.053
KRPVSAMFIFSEEKRRQLQEERPELSESELTRLLARMWNDLSEKKKAKYKAREAALKWQSER [A58W] | -0.097 ± 0.067
KRPVSAMFIFSEEKRRQLQEERPELSESELTRLLARMWNDLSEKKKAKYKAREAALKYQSER [A58Y] | -0.173 ± 0.13
KRPVSAMFIFSEEKRRQLQEERPELSESELTRLLARMWNDLSEKKKAKYKAREAALKAASER [Q59A] | -0.062 ± 0.052
KRPVSAMFIFSEEKRRQLQEERPELSESELTRLLARMWNDLSEKKKAKYKAREAALKACSER [Q59C] | -0.076 ± 0.098
KRPVSAMFIFSEEKRRQLQEERPELSESELTRLLARMWNDLSEKKKAKYKAREAALKADSER [Q59D] | 0 ± 0.091
KRPVSAMFIFSEEKRRQLQEERPELSESELTRLLARMWNDLSEKKKAKYKAREAALKAESER [Q59E] | 0.009 ± 0.064
KRPVSAMFIFSEEKRRQLQEERPELSESELTRLLARMWNDLSEKKKAKYKAREAALKAFSER [Q59F] | -0.193 ± 0.1
KRPVSAMFIFSEEKRRQLQEERPELSESELTRLLARMWNDLSEKKKAKYKAREAALKAGSER [Q59G] | -0.063 ± 0.054

Variant | abundance fitness
KRPVSAMFIFSEEKRRQLQEERPELSESELTRLLARMWNDLSEKKKAKYKAREAALKAHSER [Q59H] | -0.117 ± 0.14
KRPVSAMFIFSEEKRRQLQEERPELSESELTRLLARMWNDLSEKKKAKYKAREAALKAISER [Q59I] | -0.008 ± 0.065
KRPVSAMFIFSEEKRRQLQEERPELSESELTRLLARMWNDLSEKKKAKYKAREAALKAKSER [Q59K] | 0.03 ± 0.071
KRPVSAMFIFSEEKRRQLQEERPELSESELTRLLARMWNDLSEKKKAKYKAREAALKALSER [Q59L] | -0.054 ± 0.038
KRPVSAMFIFSEEKRRQLQEERPELSESELTRLLARMWNDLSEKKKAKYKAREAALKAMSER [Q59M] | 0.011 ± 0.054
KRPVSAMFIFSEEKRRQLQEERPELSESELTRLLARMWNDLSEKKKAKYKAREAALKANSER [Q59N] | 0.028 ± 0.15
KRPVSAMFIFSEEKRRQLQEERPELSESELTRLLARMWNDLSEKKKAKYKAREAALKAPSER [Q59P] | -0.056 ± 0.075
KRPVSAMFIFSEEKRRQLQEERPELSESELTRLLARMWNDLSEKKKAKYKAREAALKARSER [Q59R] | -0.027 ± 0.038
KRPVSAMFIFSEEKRRQLQEERPELSESELTRLLARMWNDLSEKKKAKYKAREAALKATSER [Q59T] | -0.029 ± 0.05
KRPVSAMFIFSEEKRRQLQEERPELSESELTRLLARMWNDLSEKKKAKYKAREAALKAVSER [Q59V] | -0.034 ± 0.051
KRPVSAMFIFSEEKRRQLQEERPELSESELTRLLARMWNDLSEKKKAKYKAREAALKAWSER [Q59W] | -0.194 ± 0.065
KRPVSAMFIFSEEKRRQLQEERPELSESELTRLLARMWNDLSEKKKAKYKAREAALKAYSER [Q59Y] | -0.262 ± 0.1
KRPVSAMFIFSEEKRRQLQEERPELSESELTRLLARMWNDLSEKKKAKYKAREAALKAQAER [S60A] | -0.028 ± 0.046
KRPVSAMFIFSEEKRRQLQEERPELSESELTRLLARMWNDLSEKKKAKYKAREAALKAQCER [S60C] | -0.028 ± 0.077
KRPVSAMFIFSEEKRRQLQEERPELSESELTRLLARMWNDLSEKKKAKYKAREAALKAQEER [S60E] | 0 ± 0.05
KRPVSAMFIFSEEKRRQLQEERPELSESELTRLLARMWNDLSEKKKAKYKAREAALKAQFER [S60F] | 0.031 ± 0.069
KRPVSAMFIFSEEKRRQLQEERPELSESELTRLLARMWNDLSEKKKAKYKAREAALKAQGER [S60G] | 0.027 ± 0.04
KRPVSAMFIFSEEKRRQLQEERPELSESELTRLLARMWNDLSEKKKAKYKAREAALKAQHER [S60H] | -0.317 ± 0.18
KRPVSAMFIFSEEKRRQLQEERPELSESELTRLLARMWNDLSEKKKAKYKAREAALKAQIER [S60I] | -0.057 ± 0.11
KRPVSAMFIFSEEKRRQLQEERPELSESELTRLLARMWNDLSEKKKAKYKAREAALKAQLER [S60L] | -0.062 ± 0.05
KRPVSAMFIFSEEKRRQLQEERPELSESELTRLLARMWNDLSEKKKAKYKAREAALKAQMER [S60M] | -0.113 ± 0.049
